# Patent publication US20240409619A1 (WISTAR INSTITUTE OF ANATOMY AND BIOLOGY, published 2024)
# Target: SARS-COV-2 spike protein, isolate USA-WA1/2020, on pseudotyped virus (SARS-COV-2, UniProt P0DTC2 14-1273)
# Experiment: cell-based or functional assay
binder,measurement,value
"DMAb 2381_FcWT (antibody, V domains shown) VH: QMQLVQSGPEVKKPGTSVKVSCKASGFTFTSSAVQWVRQARGQRLEWIGWIAVGSGNTNYAQKFQERVSITRDMSTSTAYMELSSLRSEDTAVYYCAAPYCSRTSCHDAFDIWGQGTKVTVSS VL: EVVLTQSPGTLSLSPGERATLSCRASQSVSSSYLAWYQQKPGQAPRLLIYGASSRATGIPDRFSGSGSGTDFTLTISRLEPEDFAVYHCQHFGSSSQWTFGQGTKVEIKR",neutralization potency (IC50) of serum against pseudotyped virus,< 5 ng/mL
